Measurements reported in article PMC2542475 (The Journal of Cell Biology, 2008).

Target: T1, recombinant full-length Vps41 (S. cerevisiae, UniProt P38959 1-992)
T1 sequence: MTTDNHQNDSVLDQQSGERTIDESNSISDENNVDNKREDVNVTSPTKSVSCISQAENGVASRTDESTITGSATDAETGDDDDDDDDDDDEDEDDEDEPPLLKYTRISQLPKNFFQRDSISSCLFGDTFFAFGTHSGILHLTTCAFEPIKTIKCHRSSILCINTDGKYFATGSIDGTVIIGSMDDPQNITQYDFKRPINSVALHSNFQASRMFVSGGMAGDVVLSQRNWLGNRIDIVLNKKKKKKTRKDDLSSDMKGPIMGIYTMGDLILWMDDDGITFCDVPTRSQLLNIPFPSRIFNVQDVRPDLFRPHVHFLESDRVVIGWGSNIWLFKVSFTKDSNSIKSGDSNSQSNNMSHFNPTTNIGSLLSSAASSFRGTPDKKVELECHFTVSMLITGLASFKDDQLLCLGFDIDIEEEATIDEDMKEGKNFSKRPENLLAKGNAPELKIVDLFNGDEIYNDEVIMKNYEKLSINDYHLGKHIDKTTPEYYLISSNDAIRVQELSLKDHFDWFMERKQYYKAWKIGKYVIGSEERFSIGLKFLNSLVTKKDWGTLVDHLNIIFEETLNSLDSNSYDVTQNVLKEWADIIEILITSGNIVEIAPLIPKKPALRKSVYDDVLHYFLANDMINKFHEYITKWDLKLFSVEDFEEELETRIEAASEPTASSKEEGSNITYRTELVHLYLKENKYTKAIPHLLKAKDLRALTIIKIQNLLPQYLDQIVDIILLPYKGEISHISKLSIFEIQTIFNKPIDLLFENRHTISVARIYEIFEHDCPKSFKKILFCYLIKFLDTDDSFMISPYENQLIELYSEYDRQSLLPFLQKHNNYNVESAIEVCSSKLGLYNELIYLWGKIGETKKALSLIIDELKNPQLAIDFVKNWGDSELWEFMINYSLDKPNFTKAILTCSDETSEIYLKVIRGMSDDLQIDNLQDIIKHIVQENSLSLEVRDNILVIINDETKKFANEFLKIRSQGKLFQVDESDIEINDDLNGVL
Test: pull-down

binding result: binds
B1: GST-Ypt7 (natural protein)
chain: MSSRKKNILKVIILGDSGVGKTSLMHRYVNDKYSQQYKATIGADFLTKEVTVDGDKVATMQVWDTAGQERFQSLGVAFYRGADCCVLVYDVTNASSFENIKSWRDEFLVHANVNSPETFPFVILGNKIDAEESKKIVSEKSAQELAKSLGDIPLFLTSAKNAINVDTAFEEIARSALQQNQADTEAFEDDYNDAINIRLDGENNSCSC
